Consider 1 molecule from PMC11585616 (2024).

Common to all, as to assay: ITC
A general note: Isothermal titration calorimetry measures the heat released or taken up as one component is titrated into another.

For experiment [1], the target named is T1, VcSiaP (Vibrio cholerae, UniProt Q9KR64 23-321).
For experiment [2], the target named is T1, VcSiaP. The source holds these as a separate data set.
In another experiment the target is HiSiaP (Haemophilus influenzae, UniProt P44542 24-329).

Read-outs that look alike come from different tables or passages of the source.

T1 sequence (Q9KR64 23-321): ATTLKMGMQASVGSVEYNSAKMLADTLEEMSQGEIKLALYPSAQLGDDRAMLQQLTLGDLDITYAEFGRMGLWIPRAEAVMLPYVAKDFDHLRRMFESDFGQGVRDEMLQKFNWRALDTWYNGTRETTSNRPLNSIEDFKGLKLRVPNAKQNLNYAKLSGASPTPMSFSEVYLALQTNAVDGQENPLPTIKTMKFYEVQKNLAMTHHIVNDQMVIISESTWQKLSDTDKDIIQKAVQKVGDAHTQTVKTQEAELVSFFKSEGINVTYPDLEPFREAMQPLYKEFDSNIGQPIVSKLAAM
Sequence of HiSiaP (P44542 24-329): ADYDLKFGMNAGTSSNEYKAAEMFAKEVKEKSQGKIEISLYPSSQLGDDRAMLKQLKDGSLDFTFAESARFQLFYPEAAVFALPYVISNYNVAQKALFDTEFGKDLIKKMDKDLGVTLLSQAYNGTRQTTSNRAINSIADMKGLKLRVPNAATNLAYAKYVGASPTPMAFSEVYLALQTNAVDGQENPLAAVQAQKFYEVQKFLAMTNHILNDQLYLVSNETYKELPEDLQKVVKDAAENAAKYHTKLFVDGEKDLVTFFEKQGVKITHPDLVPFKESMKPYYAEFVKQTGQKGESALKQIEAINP

B1: VHHVcP #2 (VHH)
VHH: QVQLVESGGRLVQTGGSLRLSCAASGDTFSNYVMGWFRQAPGKEREFVAAISWTGANSYYADSVAGRFTISRDNAKNTVALQMNSLKPEDTAIYYCAADHFHVTHRKYDYWGQGTQVTVSS
On to B1, for which the Kd with VcSiaP [1] was found to be 1.97 nM; with VcSiaP [2] it was 5.61 nM; with HiSiaP, 10700 nM.

What is called Kd is the constant that tells how readily two partners part at equilibrium. Lower therefore signals higher affinity.
